Columns and labels:
Experiment in all cases: cell-based or functional assay
[1] = biological target: Bacillus subtilis xylanase A mutant Y166F (Bacillus subtilis) (UniProt P18429)
[2] = biological target: Bacillus subtilis wild type xylanase A (Bacillus subtilis) (UniProt P18429)
[3] = biological target: Bacillus subtilis xylanase A mutant R122A (Bacillus subtilis) (UniProt P18429)
[4] = biological target: Bacillus subtilis xylanase A mutant G120N (Bacillus subtilis) (UniProt P18429)
[5] = biological target: Bacillus subtilis xylanase A mutant N114D (Bacillus subtilis) (UniProt P18429)
[6] = biological target: Bacillus subtilis xylanase A mutant T123D (Bacillus subtilis) (UniProt P18429)
[7] = biological target: Bacillus subtilis xylanase A mutant D11K (Bacillus subtilis) (UniProt P18429)
[8] = biological target: Bacillus subtilis xylanase A mutant T124K (Bacillus subtilis) (UniProt P18429)
[9] = biological target: Bacillus subtilis xylanase A mutant S31K (Bacillus subtilis) (UniProt P18429)
[10] = biological target: Bacillus subtilis xylanase A mutant N114A (Bacillus subtilis) (UniProt P18429)
[11] = biological target: Bacillus subtilis xylanase A mutant D11F/R122D (Bacillus subtilis) (UniProt P18429)
[12] = biological target: Bacillus subtilis xylanase A mutant N32K (Bacillus subtilis) (UniProt P18429)
[13] = biological target: Bacillus subtilis xylanase A mutant D119K (Bacillus subtilis) (UniProt P18429)
[14] = biological target: Bacillus subtilis xylanase A mutant G120Y (Bacillus subtilis) (UniProt P18429)
[15] = biological target: Bacillus subtilis xylanase A mutant Q175E (Bacillus subtilis) (UniProt P18429)
[16] = biological target: Bacillus subtilis xylanase A mutant T123K (Bacillus subtilis) (UniProt P18429)
[17] = biological target: Bacillus subtilis xylanase A mutant D121N (Bacillus subtilis) (UniProt P18429)
[18] = biological target: Bacillus subtilis xylanase A mutant Q175L (Bacillus subtilis) (UniProt P18429)
[19] = biological target: Bacillus subtilis xylanase A mutant G34T (Bacillus subtilis) (UniProt P18429)
[20] = biological target: Bacillus subtilis xylanase A mutant G12F (Bacillus subtilis) (UniProt P18429)
[21] = biological target: Bacillus subtilis xylanase A mutant Y113A (Bacillus subtilis) (UniProt P18429)
[22] = biological target: Bacillus subtilis xylanase A mutant T124Y (Bacillus subtilis) (UniProt P18429)
[23] = biological target: Bacillus subtilis xylanase A mutant G120D (Bacillus subtilis) (UniProt P18429)
[24] = biological target: Bacillus subtilis xylanase A mutant R122F (Bacillus subtilis) (UniProt P18429)
[25] = biological target: Bacillus subtilis xylanase A mutant D11Y (Bacillus subtilis) (UniProt P18429)
[26] = biological target: Bacillus subtilis xylanase A mutant T124D (Bacillus subtilis) (UniProt P18429)
[27] = biological target: Bacillus subtilis xylanase A mutant D11F/G34D (Bacillus subtilis) (UniProt P18429)

A Relative inhibition, % at 1, 26 XIU/ml [1] of 74%, a Relative inhibition, % at 3, 15 XIU/ml [1] of 39% and a Relative inhibition, % at 6, 3 XIU/ml [1] of 22% were found for wheat endogenous xylanase inhibitor in this work. For the same substance, the Relative inhibition, % at 12, 6 XIU/ml [1] was 20%, the Relative inhibition, % at 1, 26 XIU/ml [2] was 75% and the Relative inhibition, % at 3, 15 XIU/ml [2] was 40%. For the same substance, the Relative inhibition, % at 6, 3 XIU/ml [2] was 24%, the Relative inhibition, % at 12, 6 XIU/ml [2] was 20% and the Relative inhibition, % at 1, 26 XIU/ml [3] was 78%. It also gave a Relative inhibition, % at 3, 15 XIU/ml [3] of 46%, a Relative inhibition, % at 6, 3 XIU/ml [3] of 33% and a Relative inhibition, % at 12, 6 XIU/ml [3] of 26%. For the same substance, the Relative inhibition, % at 1, 26 XIU/ml [4] was 84%, the Relative inhibition, % at 3, 15 XIU/ml [4] was 49% and the Relative inhibition, % at 6, 3 XIU/ml [4] was 29%. The Relative inhibition, % at 12, 6 XIU/ml [4] was 23%, the Relative inhibition, % at 1, 26 XIU/ml [5] was 84% and the Relative inhibition, % at 3, 15 XIU/ml [5] was 57%. For the same substance, the Relative inhibition, % at 6, 3 XIU/ml [5] was 39%, the Relative inhibition, % at 12, 6 XIU/ml [5] was 29% and the Relative inhibition, % at 1, 26 XIU/ml [6] was 83%. The Relative inhibition, % at 3, 15 XIU/ml [6] was 36%, the Relative inhibition, % at 6, 3 XIU/ml [6] was 20% and the Relative inhibition, % at 12, 6 XIU/ml [6] was 17%. The Relative inhibition, % at 1, 26 XIU/ml [7] was 109%, the Relative inhibition, % at 3, 15 XIU/ml [7] was 112% and the Relative inhibition, % at 6, 3 XIU/ml [7] was 113%. The Relative inhibition, % at 12, 6 XIU/ml [7] was 116%, the Relative inhibition, % at 1, 26 XIU/ml [8] was 110% and the Relative inhibition, % at 3, 15 XIU/ml [8] was 92%. For the same substance, the Relative inhibition, % at 6, 3 XIU/ml [8] was 73%, the Relative inhibition, % at 12, 6 XIU/ml [8] was 57% and the Relative inhibition, % at 1, 26 XIU/ml [9] was 77%. It also gave a Relative inhibition, % at 3, 15 XIU/ml [9] of 42%, a Relative inhibition, % at 6, 3 XIU/ml [9] of 23% and a Relative inhibition, % at 12, 6 XIU/ml [9] of 23%. It also gave a Relative inhibition, % at 1, 26 XIU/ml [10] of 80%, a Relative inhibition, % at 3, 15 XIU/ml [10] of 49% and a Relative inhibition, % at 6, 3 XIU/ml [10] of 28%. It also gave a Relative inhibition, % at 12, 6 XIU/ml [10] of 22%, a Relative inhibition, % at 1, 26 XIU/ml [11] of 109% and a Relative inhibition, % at 3, 15 XIU/ml [11] of 111%. The Relative inhibition, % at 6, 3 XIU/ml [11] was 110%, the Relative inhibition, % at 12, 6 XIU/ml [11] was 109% and the Relative inhibition, % at 1, 26 XIU/ml [12] was 82%. The Relative inhibition, % at 3, 15 XIU/ml [12] was 42%, the Relative inhibition, % at 6, 3 XIU/ml [12] was 19% and the Relative inhibition, % at 12, 6 XIU/ml [12] was 14%. The Relative inhibition, % at 1, 26 XIU/ml [13] was 94%, the Relative inhibition, % at 3, 15 XIU/ml [13] was 67% and the Relative inhibition, % at 6, 3 XIU/ml [13] was 40%. For the same substance, the Relative inhibition, % at 12, 6 XIU/ml [13] was 26%, the Relative inhibition, % at 1, 26 XIU/ml [14] was 81% and the Relative inhibition, % at 3, 15 XIU/ml [14] was 40%. It also gave a Relative inhibition, % at 6, 3 XIU/ml [14] of 18%, a Relative inhibition, % at 12, 6 XIU/ml [14] of 16% and a Relative inhibition, % at 1, 26 XIU/ml [15] of 87%. The Relative inhibition, % at 3, 15 XIU/ml [15] was 59%, the Relative inhibition, % at 6, 3 XIU/ml [15] was 40% and the Relative inhibition, % at 12, 6 XIU/ml [15] was 31%. The Relative inhibition, % at 1, 26 XIU/ml [16] was 80%, the Relative inhibition, % at 3, 15 XIU/ml [16] was 46% and the Relative inhibition, % at 6, 3 XIU/ml [16] was 30%. It also gave a Relative inhibition, % at 12, 6 XIU/ml [16] of 25%, a Relative inhibition, % at 1, 26 XIU/ml [17] of 80% and a Relative inhibition, % at 3, 15 XIU/ml [17] of 36%. For the same substance, the Relative inhibition, % at 6, 3 XIU/ml [17] was 16%, the Relative inhibition, % at 12, 6 XIU/ml [17] was 14% and the Relative inhibition, % at 1, 26 XIU/ml [18] was 78%. The Relative inhibition, % at 3, 15 XIU/ml [18] was 42%, the Relative inhibition, % at 6, 3 XIU/ml [18] was 25% and the Relative inhibition, % at 12, 6 XIU/ml [18] was 23%. For the same substance, the Relative inhibition, % at 1, 26 XIU/ml [19] was 99%, the Relative inhibition, % at 3, 15 XIU/ml [19] was 99% and the Relative inhibition, % at 6, 3 XIU/ml [19] was 93%. It also gave a Relative inhibition, % at 12, 6 XIU/ml [19] of 86%, a Relative inhibition, % at 1, 26 XIU/ml [20] of 110% and a Relative inhibition, % at 3, 15 XIU/ml [20] of 106%. The Relative inhibition, % at 6, 3 XIU/ml [20] was 100%, the Relative inhibition, % at 12, 6 XIU/ml [20] was 92% and the Relative inhibition, % at 1, 26 XIU/ml [21] was 96%. The Relative inhibition, % at 3, 15 XIU/ml [21] was 80%, the Relative inhibition, % at 6, 3 XIU/ml [21] was 62% and the Relative inhibition, % at 12, 6 XIU/ml [21] was 43%. For the same substance, the Relative inhibition, % at 1, 26 XIU/ml [22] was 101%, the Relative inhibition, % at 3, 15 XIU/ml [22] was 76% and the Relative inhibition, % at 6, 3 XIU/ml [22] was 49%. It also gave a Relative inhibition, % at 12, 6 XIU/ml [22] of 33%, a Relative inhibition, % at 1, 26 XIU/ml [23] of 84% and a Relative inhibition, % at 3, 15 XIU/ml [23] of 47%. It also gave a Relative inhibition, % at 6, 3 XIU/ml [23] of 24%, a Relative inhibition, % at 12, 6 XIU/ml [23] of 18% and a Relative inhibition, % at 1, 26 XIU/ml [24] of 93%. For the same substance, the Relative inhibition, % at 3, 15 XIU/ml [24] was 74%, the Relative inhibition, % at 6, 3 XIU/ml [24] was 58% and the Relative inhibition, % at 12, 6 XIU/ml [24] was 58%. It also gave a Relative inhibition, % at 1, 26 XIU/ml [25] of 120%, a Relative inhibition, % at 3, 15 XIU/ml [25] of 114% and a Relative inhibition, % at 6, 3 XIU/ml [25] of 126%. It also gave a Relative inhibition, % at 12, 6 XIU/ml [25] of 124%, a Relative inhibition, % at 1, 26 XIU/ml [26] of 87% and a Relative inhibition, % at 3, 15 XIU/ml [26] of 52%. It also gave a Relative inhibition, % at 6, 3 XIU/ml [26] of 32%, a Relative inhibition, % at 12, 6 XIU/ml [26] of 25% and a Relative inhibition, % at 1, 26 XIU/ml [27] of 104%. For the same substance, the Relative inhibition, % at 3, 15 XIU/ml [27] was 106%, the Relative inhibition, % at 6, 3 XIU/ml [27] was 103% and the Relative inhibition, % at 12, 6 XIU/ml [27] was 104%.
